Patent US20260152555A1 (HUAHUI HEALTH, published 2026)
Numbering of substitutions follows the chain as printed. Numbers in names are those of the source. One block for each binder: values may come before it.

Key:
hCD112R-ECD-His6-Avi [1] = biological target: T1, hCD112R-ECD-His6-Avi (human, UniProt Q6DKI7 42-172, biotinylated (Avi tag) in the ELISA assays); experiment: SPR (Biacore T200), multi-cycle; 733-mIgG2a captured on Protein A/G, hCD112R-ECD-His6-Avi injected; 1:1 Langmuir (the text prints the rounded 0.2 nM)
T1 construct: range 42-172; Expressed in HEK 293F cells; Analyte in SPR, and captured on streptavidin in ELISA; also called biotinylated hCD112R-ECD-His6-Avi; not shown: C-terminal His6-Avi tag
T1 sequence (looked up): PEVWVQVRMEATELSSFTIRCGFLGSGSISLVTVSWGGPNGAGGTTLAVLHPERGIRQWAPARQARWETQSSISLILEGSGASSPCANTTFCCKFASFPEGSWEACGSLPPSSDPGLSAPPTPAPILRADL
Experimental: (§1) Protein A/G (Thermo Fisher) was covalently attached to surfaces of a CM5 sensor chip using an amine coupling kit (GE Healthcare). […] Binding kinetics were evaluated using a 1:1 Langmuir binding model. The association rates (ka), dissociation rates (kd), and affinity constants (KD) were calculated using Biacore T200 evaluation software.

hCD112R-ECD-His6-Avi [2] = biological target: T1, hCD112R-ECD-His6-Avi; experiment: SPR (Biacore T200), multi-cycle; 733-mIgG2a captured on Protein A/G, hCD112R-ECD-His6-Avi injected; 1:1 Langmuir
Experimental: as §1

[3] = biological target: T2, human CD112R, full length, expressed on cells (YTS-hCD112R; Jurkat-NFAT-luc-hCD112R) (human, UniProt Q6DKI7 42-326); experiment: FACS competition on YTS-hCD112R cells against hCD112-ECD-hFc, ligand detected with goat anti-human IgG-FITC
T2 construct: whole, on cells; also called PVRIG; YTS-hCD112R cells
T2 sequence (looked up): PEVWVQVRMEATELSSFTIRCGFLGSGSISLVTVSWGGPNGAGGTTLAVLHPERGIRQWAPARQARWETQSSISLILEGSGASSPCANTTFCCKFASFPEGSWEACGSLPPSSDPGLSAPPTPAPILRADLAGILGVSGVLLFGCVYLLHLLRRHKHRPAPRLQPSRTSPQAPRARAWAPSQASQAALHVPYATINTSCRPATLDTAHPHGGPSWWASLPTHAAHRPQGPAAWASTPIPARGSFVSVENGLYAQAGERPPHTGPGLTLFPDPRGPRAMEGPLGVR
Description: (§2) Then cells were washed three times with PBS containing 0.5% BSA. Ligands binding to cells were detected by adding goat anti-human IgG-FITC Ab (Pierce-Thermo Fisher Scientific).

hCD112R-ECD-His6-Avi [4] = biological target: T1, hCD112R-ECD-His6-Avi; experiment: SPR (Biacore T200), multi-cycle, 733-mIgG2a captured by Protein A/G, hCD112R-ECD-His6-Avi as analyte, 1:1 Langmuir model
Experimental: as §1

[5] = biological target: T2, human CD112R, full length, expressed on …; experiment: FACS-based competition on YTS-hCD112R cells, competitor hCD112-ECD-hFc
Description: as §2

[6] = biological target: human CD112R, full length, expressed on cells (YTS-hCD112R; Jurkat-NFAT-luc-hCD112R) (human) (UniProt Q6DKI7); experiment: cell-based or functional assay
[7] = biological target: T3, hCD112-ECD-hFc (extracellular domain of hCD112 fused to the Fc domain of human IgG1) (human, UniProt Q92692 32-360); experiment: SPR (Biacore T200), single injection; hCD112R-ECD-mFc variant captured on anti-mFc Ab, hCD112-ECD-hFc injected
T3 construct: extracellular domain; also called hCD112 ligand; not shown: Fc domain of human IgG1
T3 sequence (looked up): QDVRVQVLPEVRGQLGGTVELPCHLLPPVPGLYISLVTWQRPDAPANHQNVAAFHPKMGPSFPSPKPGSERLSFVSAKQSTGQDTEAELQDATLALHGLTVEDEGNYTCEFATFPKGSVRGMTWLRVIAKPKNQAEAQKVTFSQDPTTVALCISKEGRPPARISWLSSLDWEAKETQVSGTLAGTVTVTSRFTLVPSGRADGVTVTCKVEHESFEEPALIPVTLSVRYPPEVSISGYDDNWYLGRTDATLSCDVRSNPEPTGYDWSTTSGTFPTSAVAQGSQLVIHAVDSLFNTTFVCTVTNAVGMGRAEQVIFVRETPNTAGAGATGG
Experimental: (§3) Kinetic analyses of the bindings of WT or mutated hCD112R-ECD-mFc proteins to H733 and hCD112-ECD were performed on a Biacore T200 instrument (Biacore, GE Healthcare). For the single-cycle SPR analysis, anti-mFc Ab (Thermo Fisher) was covalently attached to surfaces of a CM5 sensor chip using an amine coupling kit (GE Healthcare). WT or mutated hCD112R-ECD mFc fusion proteins were captured on the chip and H733-hIgG4 or hCD112-ECD-hFc were then injected. For the multi-cycle SPR analysis, anti-hFc Ab (Thermo Fisher) was covalently attached to surfaces of a CM5 sensor chip using an amine coupling kit (GE Healthcare). H733-hIgG4 or hCD112-ECD-hFc protein was captured on the chip and 2-fold serially diluted WT or mutated hCD112R-ECD-mFc proteins (3.125-100 nM) were then injected. Binding kinetics were evaluated using a 1:1 Langmuir binding model. The association rates (ka), dissociation rates (kd), and affinity constants (KD) were calculated using Biacore T200 evaluation software.

[8] = biological target: T3, hCD112-ECD-hFc (extracellular domain of …); experiment: SPR (Biacore T200), multi-cycle; hCD112-ECD-hFc captured on anti-hFc Ab, hCD112R-ECD-mFc WT injected (3.125-100 nM); 1:1 Langmuir [Cont') C]
Experimental: as §3

[9] = biological target: T3, hCD112-ECD-hFc (extracellular domain of …); experiment: SPR (Biacore T200), multi-cycle; hCD112-ECD-hFc captured on anti-hFc Ab, hCD112R-ECD-mFc variant injected [Cont') C]
Experimental: as §3

[10] = biological target: T3, hCD112-ECD-hFc (extracellular domain of …); experiment: SPR (Biacore T200), multi-cycle; hCD112-ECD-hFc captured on anti-hFc Ab, hCD112R-ECD-mFc variant injected (3.125-100 nM); 1:1 Langmuir [Cont') C]
Experimental: as §3

B2: COM701 (humanized anti-hCD112R Ab developed by the Compugen Company, hIgG4) (antibody, from another filing, V domains shown)
VH: QVQLVQSGAEVKKPGASVKVSCKASGYTFTDYNINWVRQAPGQGLEWMGYIYPYIGGSGYAQKFQGRVTMTRDTSTSTVYMELSSLRSEDTAVYYCAREDKTARNAMDYWGQGTLVTVSS
VL: DIQMTQSPSSLSASVGDRVTITCRVSENIYSNLAWYQQKPGKAPKLLIYEATNLAEGVPSRFSGSGSGTDFTLTISSLQPEDFATYYCQHFWGTPYTFGQGTKLEIK
EC50 of luciferase production, Jurkat-NFAT-luc-hCD112R reporter cells with CHO-OKT3scFv hCD112 cells [6]: 0.69 µg/mL

B3: S67P (Fc fusion, human, UniProt Q6DKI7 42-172, looked up)
Fc fusion chain: T1 sequence (looked up) with S26P
notes: extracellular domain, amino acids 42-172; also called hCD112R-ECD-mFc S67P variant
binding result [7]: binds

B6: H92A (Fc fusion, human, UniProt Q6DKI7 42-172, looked up)
Fc fusion chain: T1 sequence (looked up) with H51A
notes: extracellular domain, amino acids 42-172; alanine-scanning variant; also called hCD112R-ECD-mFc H92A variant
Kd [10]: 72.1 nM
koff [10]: 0.00532 s⁻¹
kon [10]: 73700 M⁻¹ s⁻¹

Now from value to binder:

Kd (hCD112R-ECD-His6-Avi [1]): 0.198 nM
koff (hCD112R-ECD-His6-Avi [2]): 0.000888 s⁻¹
kon (hCD112R-ECD-His6-Avi [2]): 4.49e+06 M⁻¹ s⁻¹
IC50 (read off the curve) [3]: ~2 µg/mL
Kd (hCD112R-ECD-His6-Avi [4]): 0.2 nM
IC50 [5]: 0.29 µg/mL
B1: anti-hCD112R mAb 733 (733-mIgG2a) (antibody, V domains shown)
VH: QVQLQQSGAELVRPGTSVKVSCKASGYAFTNYLIEWLKQRPGQGLEWIGVINPGHGFTNYNEKFKGKATLTADKSSSTAYMQLSSLTSDDSAVYFCARGEWDWYFDVWGAGTTVTVSS
VL: DIVMTQSQKFMSTSVGDRVSITCKASQNVGTAVAWYQQKPGQSPKLLIYSTSNRYTGVPDRFTGSGSGTDFTLTISNLQSEDLADYFCQQCSSYPFTFGSGTKLEIK
notes: VH and VL were cloned onto the constant regions of mouse IgG2a heavy and light chains (full-length mIgG2a, made in HEK 293F)

Kd [8]: 64.3 nM
koff [8]: 0.00514 s⁻¹
kon [8]: 80000 M⁻¹ s⁻¹
B4: hCD112R-ECD-mFc WT (Fc fusion, human, UniProt Q6DKI7 42-172, looked up)
chain: T1 sequence (looked up)
notes: range 42-172; also called WT hCD112R; wildtype (WT) hCD112R protein; not shown: Fc domain of mouse IgG2a

binding result [9]: no binding
B5: L72A (Fc fusion, human, UniProt Q6DKI7 42-172, looked up)
Fc fusion chain: T1 sequence (looked up) with L31A
notes: extracellular domain, amino acids 42-172; alanine-scanning variant; also called hCD112R-ECD-mFc L72A variant

Kd [10]: 112 nM
koff [10]: 0.0126 s⁻¹
kon [10]: 112000 M⁻¹ s⁻¹
B7: E94A (Fc fusion, human, UniProt Q6DKI7 42-172, looked up)
Fc fusion chain: T1 sequence (looked up) with E53A
notes: extracellular domain, amino acids 42-172; alanine-scanning variant; also called hCD112R-ECD-mFc E94A variant
